Laboratory results reported in patent publication US20160355602A1 (Astellas, published 2016).
Where “and” joins values, the source holds several entries; their conditions need not be identical. Identical values can stand only once. Values belong to the binder of their own block, whether it stands above or below them.

Assays:
[1] = molecular target: T1, human TLR2 endogenously expressed on cells (THP1-xBlue cells; normal human peripheral blood mononuclear cells) (human, UniProt O60603 21-784); assay: cell-based or functional assay
T1 sequence (O60603 21-784): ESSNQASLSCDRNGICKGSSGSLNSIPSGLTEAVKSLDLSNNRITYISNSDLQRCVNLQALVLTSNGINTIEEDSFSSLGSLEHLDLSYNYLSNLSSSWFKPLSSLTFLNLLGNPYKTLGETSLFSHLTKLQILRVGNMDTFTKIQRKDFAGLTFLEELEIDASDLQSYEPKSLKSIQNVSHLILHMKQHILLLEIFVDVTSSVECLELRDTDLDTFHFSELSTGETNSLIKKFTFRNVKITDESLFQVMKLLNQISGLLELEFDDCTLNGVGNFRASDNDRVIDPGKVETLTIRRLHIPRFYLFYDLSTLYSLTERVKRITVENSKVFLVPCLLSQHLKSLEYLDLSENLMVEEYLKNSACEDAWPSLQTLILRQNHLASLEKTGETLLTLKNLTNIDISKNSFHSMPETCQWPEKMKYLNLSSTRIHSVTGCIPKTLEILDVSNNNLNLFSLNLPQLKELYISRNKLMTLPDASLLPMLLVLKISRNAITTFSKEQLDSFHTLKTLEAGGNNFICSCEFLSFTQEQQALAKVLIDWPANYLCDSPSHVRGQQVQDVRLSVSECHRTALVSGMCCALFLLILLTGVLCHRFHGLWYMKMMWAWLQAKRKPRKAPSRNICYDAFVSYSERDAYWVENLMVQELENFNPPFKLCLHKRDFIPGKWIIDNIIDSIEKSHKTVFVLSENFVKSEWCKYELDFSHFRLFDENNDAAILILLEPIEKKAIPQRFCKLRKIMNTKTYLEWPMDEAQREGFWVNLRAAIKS

[2] = molecular target: T2, human TLR2 protein (R&D Systems, 2616-TR-050) (human, UniProt O60603 21-590, limits assumed); assay: SPR (Biacore T200), human TLR2 protein captured by anti-His IgG on CM5 chip, antibody at 200 nM as analyte, bivalent analyte model
T2 construct: Bought recombinant protein
T2 sequence (O60603 21-590 limits assumed): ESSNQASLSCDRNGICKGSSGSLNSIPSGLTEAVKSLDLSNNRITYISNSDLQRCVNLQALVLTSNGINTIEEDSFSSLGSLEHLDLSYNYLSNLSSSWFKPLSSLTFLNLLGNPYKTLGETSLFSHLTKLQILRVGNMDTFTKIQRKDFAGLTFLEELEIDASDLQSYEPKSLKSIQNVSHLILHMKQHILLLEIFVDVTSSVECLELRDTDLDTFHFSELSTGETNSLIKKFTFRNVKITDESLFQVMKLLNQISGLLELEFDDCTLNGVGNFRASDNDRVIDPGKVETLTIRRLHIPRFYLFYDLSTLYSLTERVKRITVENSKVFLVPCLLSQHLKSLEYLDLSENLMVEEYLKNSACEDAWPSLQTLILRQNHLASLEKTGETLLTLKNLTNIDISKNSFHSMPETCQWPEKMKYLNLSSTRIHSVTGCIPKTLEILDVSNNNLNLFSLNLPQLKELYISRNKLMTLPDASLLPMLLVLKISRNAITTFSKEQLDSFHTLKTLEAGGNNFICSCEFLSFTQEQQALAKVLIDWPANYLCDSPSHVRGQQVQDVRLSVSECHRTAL
Procedure: To evaluate a binding activity of the fully human 31-5F5-2F3.m1 prepared in Example 4 for human TLR2, an SPR analysis was carried out.
In the SPR analysis, Biacore T200 (GE Healthcare Japan) was used to carry out analysis. An Anti-His IgG (enclosed in His Capture Kit) was immobilized on a sensor chip CM5 (GE Healthcare Japan, BR-1005-30) using a His Capture Kit (GE Healthcare Japan, 28-9950-56) and Amine Coupling Kit (GE Healthcare Japan, BR-1000-50). Flow path No. 1 is referred to as a reference, onto which the human TLR2 protein was not attached. Onto each of other flow paths (No. 2, No. 3, and No. 4), a human TLR2 protein (R&D Systems, 2616-TR-050) diluted to 0.66 μg/mL in HBS-EP+ buffer (GE Healthcare Japan, BR-1006-69) was added at a flow rate of 5 μL/minute for 2 minutes and then immobilized. Thereafter, a solution of fully human 31-5F5-2F3.m1 diluted to 200 nM in HBS-EP+buffer was added at a flow rate of 50 μL/minute for 2 minutes, and the fully human antibody-human TLR2 binding was measured. Next, HBS-EP+buffer was added at a flow rate of 50 μL/minute for 5 minutes and the dissociation of the fully human antibody and human TLR2 was measured. Bivalent analyte model and the Rmax were analyzed by Fit local to calculate the association rate constant (ka) and dissociation rate constant (kd), and the association-dissociation constant (KD) was calculated by dividing kd by ka.

[3] = molecular target: T1, human TLR2 endogenously expressed on …; assay: cell-based or functional assay; remark: listed apart in the source
[4] = molecular target: human TLR4/MD2 endogenously expressed on normal human peripheral blood mononuclear cells (human, UniProt O00206 24-839; Q9Y6Y9 19-160); assay: cell-based or functional assay
Chain of human TLR4/MD2 endogenously expressed on normal human peripheral blood mononuclear cells (O00206 24-839, chain 1 of 2): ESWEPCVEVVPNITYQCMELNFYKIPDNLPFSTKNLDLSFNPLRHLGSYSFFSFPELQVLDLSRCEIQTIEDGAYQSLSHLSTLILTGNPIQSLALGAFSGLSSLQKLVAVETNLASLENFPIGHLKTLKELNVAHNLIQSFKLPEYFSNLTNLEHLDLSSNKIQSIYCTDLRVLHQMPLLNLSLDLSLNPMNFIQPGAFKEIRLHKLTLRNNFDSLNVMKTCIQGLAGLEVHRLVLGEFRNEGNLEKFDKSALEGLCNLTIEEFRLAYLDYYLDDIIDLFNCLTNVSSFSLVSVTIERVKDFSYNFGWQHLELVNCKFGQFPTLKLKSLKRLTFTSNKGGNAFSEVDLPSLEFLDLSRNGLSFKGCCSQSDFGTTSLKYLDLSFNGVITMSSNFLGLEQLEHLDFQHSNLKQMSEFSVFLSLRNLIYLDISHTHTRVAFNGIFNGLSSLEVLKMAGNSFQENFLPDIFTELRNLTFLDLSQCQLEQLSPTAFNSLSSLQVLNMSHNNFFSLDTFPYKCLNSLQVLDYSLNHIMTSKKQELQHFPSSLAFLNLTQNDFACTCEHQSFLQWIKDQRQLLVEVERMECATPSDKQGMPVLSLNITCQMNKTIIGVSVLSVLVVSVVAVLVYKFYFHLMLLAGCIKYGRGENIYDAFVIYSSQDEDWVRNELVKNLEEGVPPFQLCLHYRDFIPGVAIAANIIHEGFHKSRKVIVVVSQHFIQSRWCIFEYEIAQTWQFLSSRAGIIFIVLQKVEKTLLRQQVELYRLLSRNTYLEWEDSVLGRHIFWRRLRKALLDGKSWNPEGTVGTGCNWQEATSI
Chain of human TLR4/MD2 endogenously expressed on normal human peripheral blood mononuclear cells (Q9Y6Y9 19-160, chain 2 of 2): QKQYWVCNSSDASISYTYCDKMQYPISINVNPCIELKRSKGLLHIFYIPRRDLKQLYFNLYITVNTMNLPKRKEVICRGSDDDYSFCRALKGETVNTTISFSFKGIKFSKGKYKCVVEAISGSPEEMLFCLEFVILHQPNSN

[5] = molecular target: T3, human TLR4/MD2 protein (R&D Systems, 3146-TM/CF) (human, UniProt O00206 24-631; Q9Y6Y9 17-160, limits assumed); assay: ELISA, human TLR4/MD2 protein immobilized on plate, detection with anti-human IgG-HRP
T3 construct: Bought recombinant complex; also called human TLR4 and MD2 complex
T3 sequence (O00206 24-631 limits assumed, chain 1 of 2): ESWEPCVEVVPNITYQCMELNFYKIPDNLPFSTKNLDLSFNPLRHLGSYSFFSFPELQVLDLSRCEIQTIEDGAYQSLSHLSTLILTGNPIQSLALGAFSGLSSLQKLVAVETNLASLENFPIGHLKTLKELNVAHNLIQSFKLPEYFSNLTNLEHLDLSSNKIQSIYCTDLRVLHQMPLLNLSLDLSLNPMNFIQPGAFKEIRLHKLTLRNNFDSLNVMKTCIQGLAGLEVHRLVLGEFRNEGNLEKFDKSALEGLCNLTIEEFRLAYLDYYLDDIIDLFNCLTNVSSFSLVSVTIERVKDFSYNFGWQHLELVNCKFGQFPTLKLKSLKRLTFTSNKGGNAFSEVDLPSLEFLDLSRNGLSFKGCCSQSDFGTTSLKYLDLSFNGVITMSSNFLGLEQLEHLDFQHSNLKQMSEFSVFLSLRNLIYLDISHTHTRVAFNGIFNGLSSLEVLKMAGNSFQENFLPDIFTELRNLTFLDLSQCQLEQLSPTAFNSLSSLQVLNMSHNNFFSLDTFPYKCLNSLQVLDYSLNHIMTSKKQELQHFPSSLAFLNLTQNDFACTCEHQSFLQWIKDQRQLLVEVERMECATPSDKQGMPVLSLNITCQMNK
T3 sequence (Q9Y6Y9 17-160 limits assumed, chain 2 of 2): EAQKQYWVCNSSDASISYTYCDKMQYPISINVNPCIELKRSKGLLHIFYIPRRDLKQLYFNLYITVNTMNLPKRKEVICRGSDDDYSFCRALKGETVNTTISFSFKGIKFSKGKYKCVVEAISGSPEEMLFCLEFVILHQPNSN
Procedure: (§1) In order to evaluate the binding activity of each of two bispecific antibodies prepared in Example 8 for human TLR2 and human TLR4, ELISA was carried out using a human TLR2 protein and a human TLR4/MD2 protein. 15 μL/well of a human TLR2 protein (R&D Systems, 2616-TR-050) diluted to a concentration of 10 μg/mL in PBS (Life Technologies, 10010-023) was added to a MaxiSorp 384-well plate Clear (Thermo Fisher Scientific Inc.), followed by immobilization at room temperature for 1 hour. Similarly, 15 μL/well of a human TLR4/MD2 protein (R&D Systems, 3146-TM/CF) was added at 10 μg/mL, followed by immobilization at room temperature for 1 hour. After 1 hour, the wells were washed three times with a washing solution (0.05% Tween-20-containing Tris-buffered saline (TBS)), and 100 μL/well of Blocking One (NACALAI TESQUE, INC., 03953-95) was added, followed by blocking at room temperature for 1 hour. The wells were washed again three times with a washing solution, 15 μL/well of two bispecific antibodies prepared in Example 8 was added to the well on which the human TLR2 protein was immobilized and the well on which the human TLR4/MD2 protein was immobilized. […] An absorbance at 450 nm was measured by using Safire2 (TECAN), and an EC50 value of each antibody for the human TLR2 protein and the human TLR4/MD2 protein was calculated.

[6] = molecular target: T2, human TLR2 protein (R&D Systems, …); assay: ELISA, human TLR2 protein immobilized on plate, detection with anti-human IgG-HRP
Procedure: as §1

- IC50 value against Pam2CSK4-induced AP production in THP1-xBlue cells [1]: 0.0977 nM and 0.13 nM
- Kd [2]: 0.0885 nM
B1: fully human 31-5F5-2F3.m1 (antibody, human IgG1, kappa, V domains shown)
VH: EVQLVESGGGLVQPGGSLRLSCAASGFTFSNYAMSWVRQAPGKGLEWVAAIYGRGGYTNYADSVKGRFTISRDNSKNTLYLQMNSLRAEDTAVYYCAKEGGGYRDYFDYWGQGTLVTVSS
VL: DVQMTQSPSSLSASVGDRVTITCRSSQSLVFSDGNTYLNWFQQKPGKAPKRLIYKVSNRDSGVPSRFSGSGSGTDFTLTISSLQPEDFATYYCMQGAHWPLTFGQGTKVEIKR
notes: Human Igγ1 / human kappa constant regions; also called fully human anti-human TLR2 antibody; fully human antibody of 31-5F5-2F3.m1

- EC50 [5]: 0.522 nM
- EC50 [6]: 0.21 nM
B2: fully human ICU-1-Igγ1-LAsh (bispecific antibody, human IgG1, kappa, L234A L235A)
heavy: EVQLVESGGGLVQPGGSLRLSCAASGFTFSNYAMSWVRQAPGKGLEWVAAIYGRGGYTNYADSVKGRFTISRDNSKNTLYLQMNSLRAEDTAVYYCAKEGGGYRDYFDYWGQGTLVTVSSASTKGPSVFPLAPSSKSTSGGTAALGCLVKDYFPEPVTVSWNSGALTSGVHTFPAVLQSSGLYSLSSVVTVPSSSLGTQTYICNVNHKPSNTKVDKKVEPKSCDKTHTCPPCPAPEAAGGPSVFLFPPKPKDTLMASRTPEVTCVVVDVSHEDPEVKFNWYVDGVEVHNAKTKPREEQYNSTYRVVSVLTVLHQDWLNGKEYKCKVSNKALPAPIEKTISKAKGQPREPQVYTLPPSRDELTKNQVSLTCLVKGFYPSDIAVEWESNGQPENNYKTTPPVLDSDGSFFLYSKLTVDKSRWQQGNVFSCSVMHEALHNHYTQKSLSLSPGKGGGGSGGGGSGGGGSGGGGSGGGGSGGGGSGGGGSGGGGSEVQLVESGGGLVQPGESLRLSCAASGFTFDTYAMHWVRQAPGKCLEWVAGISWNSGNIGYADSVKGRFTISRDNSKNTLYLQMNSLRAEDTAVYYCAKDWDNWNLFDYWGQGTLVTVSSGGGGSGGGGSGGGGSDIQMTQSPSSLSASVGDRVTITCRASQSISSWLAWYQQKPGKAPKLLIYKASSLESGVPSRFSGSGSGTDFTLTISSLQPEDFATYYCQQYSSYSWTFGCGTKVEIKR
light: DVQMTQSPSSLSASVGDRVTITCRSSQSLVFSDGNTYLNWFQQKPGKAPKRLIYKVSNRDSGVPSRFSGSGSGTDFTLTISSLQPEDFATYYCMQGAHWPLTFGQGTKVEIKRTVAAPSVFIFPPSDEQLKSGTASVVCLLNNFYPREAKVQWKVDNALQSGNSQESVTEQDSKDSTYSLSSTLTLSKADYEKHKVYACEVTHQGLSSPVTKSFNRGEC
notes: As fully human ICU-1-Igγ1, but with L234A, L235A and I253A (EU index) in the human Igγ1 constant region; also called IgG(TLR2)-scFv(TLR4) bispecific antibody with L234A, L235A and I253A
- IC50 value, killed Pseudomonas aeruginosa-induced TNFα production on normal human peripheral blood mononuclear cells [3]: 0.0172 nM
- IC50 value, killed Pseudomonas aeruginosa-induced TNFα production on normal human peripheral blood mononuclear cells [4]: 0.0172 nM

- EC50 [5]: 0.493 nM
- EC50 [6]: 0.15 nM
B3: fully human ICU-1-Igγ1 (bispecific antibody, human IgG1, kappa)
heavy: not shown
light: B2 light
notes: Tetravalent IgG-scFv: an anti-TLR4 scFv is joined by a GS linker to the C terminal of each heavy chain of the anti-TLR2 IgG1; also called IgG(TLR2)-scFv(TLR4) bispecific antibody
- IC50 value, killed Pseudomonas aeruginosa-induced TNFα production on normal human peripheral blood mononuclear cells [3]: 0.04 nM
- IC50 value, killed Pseudomonas aeruginosa-induced TNFα production on normal human peripheral blood mononuclear cells [4]: 0.04 nM
